We go through 2 molecules from patent US20080118529A1 (published 2008).

B2: Tissue-type plasminogen activator (tPA, Actilyse, Boehringer-Ingelheim) (enzyme, human, UniProt P00750 36-562, looked up)
chain: SYQVICRDEKTQMIYQQHQSWLRPVLRSNRVEYCWCNSGRAQCHSVPVKSCSEPRCFNGGTCQQALYFSDFVCQCPEGFAGKCCEIDTRATCYEDQGISYRGTWSTAESGAECTNWNSSALAQKPYSGRRPDAIRLGLGNHNYCRNPDRDSKPWCYVFKAGKYSSEFCSTPACSEGNSDCYFGNGSAYRGTHSLTESGASCLPWNSMILIGKVYTAQNPSAQALGLGKHNYCRNPDGDAKPWCHVLKNRRLTWEYCDVPSCSTCGLRQYSQPQFRIKGGLFADIASHPWQAAIFAKHRRSPGERFLCGGILISSCWILSAAHCFQERFPPHHLTVILGRTYRVVPGEEEQKFEVEKYIVHKEFDDDTYDNDIALLQLKSDSSRCAQESSVVRTVCLPPADLQLPDWTECELSGYGKHEALSPFYSERLKEAHVRLYPSSRCTSQHLLNRTVTDNMLCAGDTRSGGPQANLHDACQGDSGGPLVCLNDGRMTLVGIISWGLGCGQKDVPGVYTKVTNYLDWIRDNMRP
notes: also called full-length tPA; recombinant human tPA

“And” between values parts separate entries of the source, which are not always exact repeats. Equal values may be shown once.

Assay [1] concerns the target T1, human factor XII from plasma (Calbiochem, #233490) (human, UniProt P00748 20-615).
T1 construct: also called FXII
T1 sequence (looked up): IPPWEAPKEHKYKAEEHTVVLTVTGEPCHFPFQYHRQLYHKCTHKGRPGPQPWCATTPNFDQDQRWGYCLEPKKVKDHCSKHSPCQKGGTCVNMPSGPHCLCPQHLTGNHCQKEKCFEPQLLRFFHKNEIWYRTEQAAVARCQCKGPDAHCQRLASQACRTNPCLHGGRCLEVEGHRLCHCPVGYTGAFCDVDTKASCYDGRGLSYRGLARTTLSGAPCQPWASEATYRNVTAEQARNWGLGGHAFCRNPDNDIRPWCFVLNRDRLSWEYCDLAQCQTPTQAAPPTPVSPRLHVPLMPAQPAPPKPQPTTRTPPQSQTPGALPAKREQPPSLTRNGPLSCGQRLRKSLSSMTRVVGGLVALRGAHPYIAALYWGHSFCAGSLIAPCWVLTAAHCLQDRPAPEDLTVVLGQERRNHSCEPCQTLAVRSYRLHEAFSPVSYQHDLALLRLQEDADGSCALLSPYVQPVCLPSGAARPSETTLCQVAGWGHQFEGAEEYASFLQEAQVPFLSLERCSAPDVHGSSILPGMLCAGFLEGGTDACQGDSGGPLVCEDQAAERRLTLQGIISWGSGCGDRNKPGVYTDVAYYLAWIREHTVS
The assay can be described thus: ELISA: factor XII coated, concentration series of β2GPI, detection with monoclonal antibody 2B2.

Assay [2] concerns the target B2. The experiment in a line: ELISA: tPA coated, concentration series of β2GPI, detection with monoclonal antibody 2B2.
Assay [3] has as its target T1, human factor XII from plasma …. The assay can be described thus: ELISA; factor XII incubated with DXS500k or buffer immobilized, overlaid with tPA in 10 mM εACA.
Another assay addresses T2, albumin (ICN, 160069) (bovine, UniProt P02769 25-607).
T2 construct: also called bovine serum albumin (ICN, #160069, fraction V)
The assay can be described thus: ELISA; protein incubated with DXS500k or buffer immobilized, overlaid with tPA in 10 mM εACA.

T2 sequence (P02769 25-607 limits assumed): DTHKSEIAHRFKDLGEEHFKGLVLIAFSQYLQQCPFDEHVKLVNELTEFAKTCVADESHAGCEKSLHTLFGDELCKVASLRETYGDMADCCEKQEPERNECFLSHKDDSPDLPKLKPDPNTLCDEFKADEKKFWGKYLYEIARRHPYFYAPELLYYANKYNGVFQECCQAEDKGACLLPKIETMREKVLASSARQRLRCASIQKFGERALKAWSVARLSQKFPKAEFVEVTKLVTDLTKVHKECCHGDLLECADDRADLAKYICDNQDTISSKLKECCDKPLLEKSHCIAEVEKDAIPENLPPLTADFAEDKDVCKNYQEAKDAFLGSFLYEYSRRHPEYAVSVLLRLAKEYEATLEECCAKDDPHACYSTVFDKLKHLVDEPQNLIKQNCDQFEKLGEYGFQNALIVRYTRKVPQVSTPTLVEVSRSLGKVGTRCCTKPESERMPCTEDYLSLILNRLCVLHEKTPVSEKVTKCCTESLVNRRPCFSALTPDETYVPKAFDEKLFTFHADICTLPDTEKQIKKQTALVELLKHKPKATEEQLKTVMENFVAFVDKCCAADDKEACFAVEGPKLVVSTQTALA

B1: recombinant human β2-glycoprotein I (made in insect cells) (other, UniProt P02749 20-345, looked up)
chain: GRTCPKPDDLPFSTVVPLKTFYEPGEEITYSCKPGYVSRGGMRKFICPLTGLWPINTLKCTPRVCPFAGILENGAVRYTTFEYPNTISFSCNTGFYLNGADSAKCTEEGKWSPELPVCAPIICPPPSIPTFATLRVYKPSAGNNSLYRDTAVFECLPQHAMFGNDTITCTTHGNWTKLPECREVKCPFPSRPDNGFVNYPAKPTLYYKDKATFGCHDGYSLDGPEEIECTKLGNWSAMPSCKASCKVPVKKATVVYQGERVKIQEKFKNGMLHGDKVSFFCKNKEKKCSYTEDAQCIDGTIEVPKCFKEHSSLAFWKTDASDVKPC
notes: also called recombinant β2GPI; rec. β2GPI
As to B1, the Kd was 0.9 µg/mL and 20 nM in assay [1]; 2.3 µg/mL and 51 nM in assay [2].
In the case of B2, the binding result in assay [3] is recorded as “binds”. Besides, the “factor of increase in tPA binding (protein exposed to DXS500k against protein in buffer only)” value with albumin (ICN, 160069) was 1.3 fold.
